Non-standard residues stand in square brackets, D forms with d. *: point of attachment. MethylRed = CN(C)c1ccc(/N=N/c2ccccc2C(=O)*)cc1; FAM = 5(6)-carboxyfluorescein; peptoid = not defined here; Ahx = NCCCCCC(=O)O
T1: caspase-7 (Homo sapiens, UniProt P55210)
T1 construct: purchased R&D systems, USA
T1 sequence (P55210 24-198 limits assumed): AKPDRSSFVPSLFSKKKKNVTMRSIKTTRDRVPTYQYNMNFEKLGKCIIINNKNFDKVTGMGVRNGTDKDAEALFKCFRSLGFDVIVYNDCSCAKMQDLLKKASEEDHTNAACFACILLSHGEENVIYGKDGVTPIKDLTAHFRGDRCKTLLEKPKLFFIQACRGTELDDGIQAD
T1 sequence (P55210 207-303 limits assumed): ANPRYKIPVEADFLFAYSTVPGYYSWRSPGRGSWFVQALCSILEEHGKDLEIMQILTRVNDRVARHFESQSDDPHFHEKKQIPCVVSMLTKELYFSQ

T2: caspase-3 (Homo sapiens, UniProt P42574)
T2 construct: purchased R&D systems, USA
T2 sequence (P42574 29-175 limits assumed): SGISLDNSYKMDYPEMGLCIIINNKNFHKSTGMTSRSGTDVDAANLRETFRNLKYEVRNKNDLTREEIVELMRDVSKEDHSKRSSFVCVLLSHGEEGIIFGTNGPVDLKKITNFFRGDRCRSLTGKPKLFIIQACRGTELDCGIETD
T2 sequence (P42574 176-277 limits assumed): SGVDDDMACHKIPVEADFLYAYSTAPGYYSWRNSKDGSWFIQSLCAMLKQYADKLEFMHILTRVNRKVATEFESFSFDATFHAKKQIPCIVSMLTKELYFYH

T3: caspase-3 (UniProt P42574)
T3 sequence: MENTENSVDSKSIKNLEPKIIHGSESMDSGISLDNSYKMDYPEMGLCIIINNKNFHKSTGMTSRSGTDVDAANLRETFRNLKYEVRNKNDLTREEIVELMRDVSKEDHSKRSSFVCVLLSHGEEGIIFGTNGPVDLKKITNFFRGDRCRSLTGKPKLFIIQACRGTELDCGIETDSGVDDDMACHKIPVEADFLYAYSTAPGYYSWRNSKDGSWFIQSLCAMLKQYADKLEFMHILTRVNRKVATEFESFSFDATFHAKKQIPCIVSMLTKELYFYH


Key:
[1] = molecular target: T1, caspase-7; assay: Kinetic assay of fluorogenic substrates with caspase-7; format: biochemical; details: substrate range 0.1–8 μM; enzyme 20 nM (1–9) or 15 nM (10–14); n = 3
Procedure: (§1) The ability of […] (bearing MR as the quencher of choice) to act as s substrate for caspase-3, as well as caspase-7, was investigated by determining the catalytic efficiency (kcat/KM) for each substrate with both enzymes (Table 2).
(§2) Caspase-3 or caspase-7 (R&D systems, USA) was added to 100 μL of caspase assay buffer with substrates 1–14 at concentrations from 0.1 μM to 8 μM in a 96-well plate (n = 3) to give final enzyme concentration of 20 nM (1–9) or 15 nM (10–14). Fluorescence (λEx/Em 485/528 nm) was recorded on a Biotek Synergy HT Multi-Mode Microplate Reader every 2 min. Control samples had the same composition but no enzyme. The rate (μM/min) was calibrated using a 5(6)-carboxyfluorescein conversion factor (0.0055 μM/RFU) and data plotted against time (min). For initial cleavage rate (0–5 min), plots were fitted using linear regression analysis and the Michaelis-Menten data generated using GraphPad Prism 5.

[2] = molecular target: T2, caspase-3; assay: Kinetic assay of fluorogenic substrates with caspase-3; format: biochemical; details: substrate range 0.1–8 μM, enzyme 20 nM (1–9) or 15 nM (10–14), n = 3; for Km: fluorescence λEx/Em 485/528 nm, initial rate 0–5 min, Michaelis-Menten
Procedure: as §1, §2

[3] = molecular target: T2, caspase-3; assay: Caspase-3-mediated cleavage at high enzyme concentration analysed by MALDI-TOF MS; format: biochemical; details: 10–20 μM substrate, 0.4 μM enzyme; for cleavage by caspase-3 (MALDI-TOF MS): 2 h, 37 °C; for parent compound after incubation with caspase-3: after 2h, MALDI-TOF MS
Procedure: (§3) To confirm how specific 11, 12 and 14 were for caspase-3, these substrates were incubated with high enzyme concentrations (10–20 μM substrate, 0.4 μM enzyme) and the caspase-mediated cleavage analysed by MALDI-TOF MS.
(§4) S2 Fig. (A) MALDI-TOF MS spectra of substrate 11 (sequence Asp-Ala-Pro-Asp). (B) After incubation (20 µM) with Caspase-3 for 2 h. (C) After incubation (20 µM) with Caspase-7 for 2 h (detected as the PBS adduct.)
(§5) Caspase-3 or caspase-7 (R&D systems, USA) was added to 100 µL of caspase assay buffer (final enzyme concentration 0.4 µM) with the substrates at 10–20 µM. The samples were incubated in Eppendorf Thermomixer® Comfort shaking at 1200 rpm for 2h at 37 °C. MALDI -TOF mass spectra were recorded as described in Table S1 .
(§6) (1 picture or pasted object on this page, not shown here)

[4] = molecular target: T1, caspase-7; assay: Caspase-7-mediated cleavage at high enzyme concentration analysed by MALDI-TOF MS; format: biochemical; details: 10–20 μM substrate, 0.4 μM enzyme, 2 h; for cleavage by caspase-7 (MALDI-TOF MS): 37 °C; for cleavage site with caspase-7: MALDI-TOF MS
Procedure: as §3, §4, §5, §6

[5] = molecular target: T3, caspase-3
[6] = molecular target: T3, caspase-3; remark: listed apart in the source

Molecule	Km [1] [µM]	kcat, Caspase-7 [1] [s⁻¹]	kcat/KM, Caspase-7 [1] [M⁻¹ s⁻¹]	Km [2] [µM]	Kcat, Caspase-3 [2] [s⁻¹]	kcat/KM (catalytic efficiency), Caspase-3 ([2]; listed as 11) [M⁻¹ s⁻¹]	cleavage by caspase-3 (MALDI-TOF MS) [3]	parent compound after incubation with caspase-3 [3]	cleavage by caspase-7 (MALDI-TOF MS) [4]	cleavage site with caspase-7 [4]	kcat/KM (catalytic efficiency), Caspase-3 ([2]; listed as 12) [M⁻¹ s⁻¹]	KM of cleavage by caspase-3 (fluorogenic Michaelis-Menten kinetics, substrate 0.1-8 μM, 15 nM enzyme) [5] [µM]	KM of cleavage by caspase-3 (fluorogenic Michaelis-Menten kinetics) [6] [µM]
substrate 11: FRET fluorogenic substrate, recognition Asp-Ala-Pro-Asp, quencher MR, C-terminal peptoid ({FAM-Ahx}-DAPD[Ahx]K(MethylRed)-{peptoid-NH2}; reading uncertain; also: printed as Asp-Ala-Pro-Asp)	4.9 ± 2.1	0.0267 ± 0.005	5000	0.4 ± 0.1	0.0217 ± 0.0017	56700	cleaved by caspase-3 at the X1 position	no longer detected	(partially) cleaved by caspase-7	between the Ahx spacer and the Lys(MR)	–	–	–
substrate 12: FRET fluorogenic substrate, recognition Asp-Leu-Pro-Asp, quencher MR, C-terminal peptoid ({FAM-Ahx}-DLPD[Ahx]K(MethylRed)-{peptoid-NH2}; reading uncertain; also: printed as Asp-Leu-Pro-Asp)	1.4 ± 0.3	0.015 ± 0.0012	12000	0.2 ± 0.1	0.0233 ± 0.0033	–	cleaved by caspase-3 at the X1 position	no longer detected	(partially) cleaved by caspase-7	between the Ahx spacer and the Lys(MR)	96700	–	–
substrate 14: FRET fluorogenic substrate, recognition Asp-Val-Pro-Asp, quencher MR, C-terminal peptoid ({FAM-Ahx}-DVPD[Ahx]K(MethylRed)-{peptoid-NH2}; reading uncertain; also: printed as Asp-Val-Pro-Asp)	3.6 ± 0.9	0.0233 ± 0.0033	6700	0.2 ± 0.04	0.0283 ± 0.0017	–	cleaved by caspase-3 at the X1 position	no longer detected	(partially) cleaved by caspase-7	between the Ahx spacer and the Lys(MR)	–	–	–
{FAM-Ahx}-DVPD[Ahx]K(MethylRed)-{peptoid-NH2} (reading uncertain; also: printed as Asp-Val-Pro-Asp) [fluorogenic substrate 14 (FAM-Ahx-Asp-Val-Pro-Asp-Ahx-Lys(MR)-peptoid)]	–	–	–	–	–	–	–	–	–	–	–	0.2	–
{FAM-Ahx}-DLPDK(MethylRed)-{Ahx-peptoid} (reading uncertain; also: printed as FAM-Ahx-Asp-Leu-Pro-Asp-Lys(MR)-Ahx-peptoid) [fluorogenic substrate 27 (FAM-Ahx-Asp-Leu-Pro-Asp-Lys(MR)-Ahx-peptoid)]	–	–	–	–	–	–	–	–	–	–	–	–	1.1
{FAM-Ahx}-DAPD[Ahx]K(MethylRed)-{peptoid-NH2} (reading uncertain; also: printed as Asp-Ala-Pro-Asp) [fluorogenic substrate 11 (FAM-Ahx-Asp-Ala-Pro-Asp-Ahx-Lys(MR)-peptoid)]	–	–	–	–	–	–	–	–	–	–	–	0.4	–
{FAM-Ahx}-DLPD[Ahx]K(MethylRed)-{peptoid-NH2} (reading uncertain; also: printed as FAM-Ahx-Asp-Leu-Pro-Asp-Ahx-Lys(MR)-peptoid) [fluorogenic substrate 12 (FAM-Ahx-Asp-Leu-Pro-Asp-Ahx-Lys(MR)-peptoid)]	–	–	–	–	–	–	–	–	–	–	–	0.2	–

From paper PMC4864350, “Fluorogenic Substrates for In Situ Monitoring of Caspase-3 Activity in Live Cells” (PLoS ONE, 2016)
